Values of other authors as cited in PMC4132707.

What was measured:
[1] = biological target: H1K26me3 peptide (Homo sapiens) (UniProt P10412)
[2] = biological target: H3K27me3 peptide (Homo sapiens) (UniProt P68431)

Sequence of EED (O75530 2-441): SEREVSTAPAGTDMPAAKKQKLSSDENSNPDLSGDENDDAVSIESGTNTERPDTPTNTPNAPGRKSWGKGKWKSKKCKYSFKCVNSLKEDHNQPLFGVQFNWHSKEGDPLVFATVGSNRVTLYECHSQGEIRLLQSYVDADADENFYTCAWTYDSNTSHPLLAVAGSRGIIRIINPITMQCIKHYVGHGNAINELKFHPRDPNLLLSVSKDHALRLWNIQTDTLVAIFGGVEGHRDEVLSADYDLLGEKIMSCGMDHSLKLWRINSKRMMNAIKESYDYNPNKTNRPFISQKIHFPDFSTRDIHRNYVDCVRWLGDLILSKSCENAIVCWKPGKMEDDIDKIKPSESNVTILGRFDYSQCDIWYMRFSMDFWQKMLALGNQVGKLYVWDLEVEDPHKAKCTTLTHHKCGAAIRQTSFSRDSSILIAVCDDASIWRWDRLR
Sequence of H1K26me3 peptide (Homo sapiens) (P10412 2-219): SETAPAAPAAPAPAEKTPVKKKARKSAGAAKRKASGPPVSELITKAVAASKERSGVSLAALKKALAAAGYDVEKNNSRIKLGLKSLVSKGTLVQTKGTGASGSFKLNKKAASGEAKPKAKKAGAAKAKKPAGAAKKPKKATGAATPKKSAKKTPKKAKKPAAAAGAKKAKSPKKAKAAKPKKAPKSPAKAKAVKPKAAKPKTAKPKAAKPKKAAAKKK

## EED (from UniProt O75530)
[1]
  Kd: > 20 µM
[2]
  Kd: > 20 µM
